Results reported in patent publication US20180155451A1 (published 2018).

T1: FcγRIIb (human, UniProt P31994 43-217)
T1 construct: extracellular domain; also called 2b
T1 sequence (looked up): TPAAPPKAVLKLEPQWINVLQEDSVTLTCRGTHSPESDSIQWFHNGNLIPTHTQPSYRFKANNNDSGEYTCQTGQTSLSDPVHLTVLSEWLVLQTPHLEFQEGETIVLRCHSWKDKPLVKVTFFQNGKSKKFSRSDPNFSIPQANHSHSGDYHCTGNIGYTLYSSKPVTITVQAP

T2: FcγRIIa H (human, UniProt P12318 34-217)
T2 construct: extracellular domain; also called FcγRIIa type H; 2aH
T2 sequence (looked up): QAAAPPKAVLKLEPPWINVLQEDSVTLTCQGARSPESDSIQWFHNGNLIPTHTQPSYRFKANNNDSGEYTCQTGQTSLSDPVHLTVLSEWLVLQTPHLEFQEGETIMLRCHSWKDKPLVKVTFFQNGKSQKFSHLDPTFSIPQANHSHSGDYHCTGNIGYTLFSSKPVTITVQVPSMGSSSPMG

T3: FcγRIIb extracellular domain with C-terminal His tag (human, UniProt P31994 43-217)
T3 construct: extracellular domain; also called 2b; FcgRIIb
T3 sequence (looked up): T1 sequence (looked up)

B1: GpH7-A5/GpH7-B3 variant L234_12R/GpL16-k0 (antibody, human IgG1, kappa)
heavy 1: not shown
heavy 2: not shown
light: DIVMTQSPLSLPVTPGEPASISCQASESLVHSNRNTYLHWYLQKPGQSPQLLIYKVSNRFSGVPDRFSGSGSGTDFTLKISRVEAEDVGVYYCSQNTHVPPTFGQGTKVEIERTVAAPSVFIFPPSDEQLKSGTASVVCLLNNFYPREAKVQWKVDNALQSGNSQESVTEQDSKDSTYSLSSTLTLSKADYEKHKVYACEVTHQGLSSPVTKSFNRGEC
notes: He Ab: alteration in one H chain only; also called He Ab
B2: GpH7-A5/GpH7-B3 variant L235_18N/GpL16-k0 (antibody, human IgG1, kappa)
heavy 1: not shown
heavy 2: not shown
light: B1 light
notes: as for B1
B3: GpH7-A5/GpH7-B3 variant L235_01G/GpL16-k0 (antibody, human IgG1, kappa)
heavy 1: not shown
heavy 2: not shown
light: B1 light
notes: as for B1
B4: GpH7-A5/GpH7-B3 variant L235_14T/GpL16-k0 (antibody, human IgG1, kappa)
heavy 1: not shown
heavy 2: not shown
light: B1 light
notes: as for B1
B5: GpH7-A5/GpH7-B3 variant L235_19Q/GpL16-k0 (antibody, human IgG1, kappa)
heavy 1: not shown
heavy 2: not shown
light: B1 light
notes: as for B1
B6: GpH7-A5/GpH7-B3 variant L234_15Y/GpL16-k0 (antibody, human IgG1, kappa)
heavy 1: not shown
heavy 2: not shown
light: B1 light
notes: as for B1
B7: GpH7-A5/GpH7-B3 variant L235_05P/GpL16-k0 (antibody, human IgG1, kappa)
heavy 1: not shown
heavy 2: not shown
light: B1 light
notes: as for B1
B8: GpH7-A5/GpH7-B3 variant L234_16H/GpL16-k0 (antibody, human IgG1, kappa)
heavy 1: not shown
heavy 2: not shown
light: B1 light
notes: as for B1
B9: GpH7-A5/GpH7-B3 variant L235_13S/GpL16-k0 (antibody, human IgG1, kappa)
heavy 1: not shown
heavy 2: not shown
light: B1 light
notes: as for B1
B10: GpH7-A5/GpH7-B3 variant L235_03V/GpL16-k0 (antibody, human IgG1, kappa)
heavy 1: not shown
heavy 2: not shown
light: B1 light
notes: as for B1
B11: GpH7-A5/GpH7-B3 variant L234_19Q/GpL16-k0 (antibody, human IgG1, kappa)
heavy 1: not shown
heavy 2: not shown
light: B1 light
notes: as for B1
B12: GpH7-A5/GpH7-B3 variant L235_11K/GpL16-k0 (antibody, human IgG1, kappa)
heavy 1: not shown
heavy 2: not shown
light: B1 light
notes: as for B1
B13: GpH7-A5/GpH7-B3 variant S267_01G/GpL16-k0 (antibody, human IgG1, kappa)
heavy 1: not shown
heavy 2: not shown
light: B1 light
notes: heterodimerized IgG1, mutation in one H chain only; also called He Ab
B14: GpH7-A5/GpH7-B3 variant S267_03V/GpL16-k0 (antibody, human IgG1, kappa)
heavy 1: not shown
heavy 2: not shown
light: B1 light
notes: as for B13
B15: GpH7-A5/GpH7-B3 variant H268_19Q/GpL16-k0 (antibody, human IgG1, kappa)
heavy 1: not shown
heavy 2: not shown
light: B1 light
notes: as for B13
B16: GpH7-A5/GpH7-B3 variant S267_07I/GpL16-k0 (antibody, human IgG1, kappa)
heavy 1: not shown
heavy 2: not shown
light: B1 light
notes: as for B13
B17: GpH7-A5/GpH7-B3 variant P271_09D/GpL16-k0 (antibody, human IgG1, kappa)
heavy 1: not shown
heavy 2: not shown
light: B1 light
notes: as for B13

These binders were tested against T4, FcγRIIIa extracellular domain with C-terminal His tag (human, UniProt P08637 17-208) (assay: SPR; He/Con_3a over He/Con_2b (FcγRIIb)).
T4 construct: extracellular domain; also called 3a; FcgRIIIa
T4 sequence (P08637 17-208): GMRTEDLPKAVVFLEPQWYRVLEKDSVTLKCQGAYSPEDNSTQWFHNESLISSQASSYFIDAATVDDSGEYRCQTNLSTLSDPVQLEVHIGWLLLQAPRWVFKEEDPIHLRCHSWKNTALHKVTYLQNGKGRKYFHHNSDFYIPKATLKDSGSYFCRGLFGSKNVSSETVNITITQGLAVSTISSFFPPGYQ

He_3a/2b (IIIa/IIb) | Binder
1.95 ratio | B1
1.23 ratio | B2
1.66 ratio | B3
1.62 ratio | B4
1.65 ratio | B5
1.35 ratio | B6
1.3 ratio | B7
1.34 ratio | B8
1.44 ratio | B9
1.48 ratio | B10
1.32 ratio | B11
6.06 ratio | B12

The binders below were run against T1, FcγRIIb (assay: SPR (Biacore), relative binding vs GpH7-A5/GpH7-B3/GpL16-k0).
Procedure: (§1) The heterodimerized antibodies He Abs in which one of the H chains was introduced with an alteration were assayed for their binding activities to each activating FcγR and inhibitory FcγR according to the method described in Example 4. […] The activating FcγRs in FIGS. 26, 27, 28, and 29 are FcγRIa, FcγRIIa (R), FcγRIIa (H), and FcγRIIIa, respectively.
(§2) Analysis of interaction between objective antibody and the FcγR was carried out using Biacore T100 (GE Healthcare). HBS-EP+ (GE Healthcare) was used as the running buffer, and the measurement temperature was set to 25° C. Chips produced by immobilizing the antigen peptide by the amine coupling method to a Series S Sencor Chip CM5 (GE Healthcare), or alternatively, chips produced by allowing preliminarily biotinylated antigen peptides to interact with and immobilize onto a Series S Sensor Chip SA (certified) (GE Healthcare) were used. Antibodies of interest were captured onto an antigen peptide-immobilized chip, and allowed to interact to each FcγR diluted with running buffer. To regenerate and repeatedly use the chip, the antibodies captured on the chip were washed off by reacting 10 mM glycine-HCl, pH 1.5.

He/Con_2b | Binder
105 % of control He Ab (=100) | B13
192 % of control He Ab (=100) | B14
133 % of control He Ab (=100) | B15
192 % of control He Ab (=100) | B16
120 % of control He Ab (=100) | B17

The binders below were run against T2, FcγRIIa H in the same assay as above.
Procedure: as §1, §2

He/Con_2aH | Binder
71.3 % of control He Ab (=100) | B13
50.8 % of control He Ab (=100) | B14
102 % of control He Ab (=100) | B15
34.7 % of control He Ab (=100) | B16
70.1 % of control He Ab (=100) | B17

Each binder was assayed against T4, FcγRIIIa extracellular domain with … (assay: SPR, relative to GpH7-A5/GpH7-B3/GpL16-k0).

He/Con_3a | Binder
36.9 control=100 | B1
67.3 control=100 | B2
58.8 control=100 | B3
75.8 control=100 | B4
70.5 control=100 | B5
130 control=100 | B6
71.1 control=100 | B7
79.5 control=100 | B8
69.6 control=100 | B9
98 control=100 | B10
79.8 control=100 | B11
38.1 control=100 | B12

The binders below were run against T3, FcγRIIb extracellular domain with … (assay: SPR, relative to GpH7-A5/GpH7-B3/GpL16-k0).

He/Con_2b | Binder
18.9 control=100 | B1
54.9 control=100 | B2
35.4 control=100 | B3
46.8 control=100 | B4
42.6 control=100 | B5
96.3 control=100 | B6
54.7 control=100 | B7
59.4 control=100 | B8
48.2 control=100 | B9
66.4 control=100 | B10
60.3 control=100 | B11
6.3 control=100 | B12

Each binder was assayed against T2, FcγRIIa H (assay: SPR; He/Con_2aH divided by He/Con_2b (FcγRIIb)).
Procedure: as §1, §2

He_2aH/2b (IIaH/IIb) | Binder
0.68 ratio | B13
0.26 ratio | B14
0.77 ratio | B15
0.18 ratio | B16
0.58 ratio | B17
